These results are taken from patent US20140303084A1 (Biogen, published 2014).

For this assay, the target named is human Factor IXa (human, UniProt P00740 47-191; P00740 227-461). Put plainly: cell-based or functional assay.

Bridge positions count the residues as written; N and C are the ends. Square brackets hold non-standard residues; d marks the D form. Primed or numbered codes have the meaning given here. Side chains are listed from the residue outwards. Ends that are not written are not given here. * marks the point of attachment. Biotin = O=C1N[C@H]2[C@H](CS[C@H]2CCCCC(=O)*)N1; PEG2(3) = PEG2 spacer carrying biotin on Lys; 1Nal = N[C@@H](Cc1cccc2ccccc12)C(=O)O; NMeR = CN[C@@H](CCCNC(=N)N)C(=O)O; NMeT = CN[C@H](C(=O)O)[C@@H](C)O; NMeL = CN[C@@H](CC(C)C)C(=O)O; Tle = CC(C)(C)[C@H](N)C(=O)O; NMeA = CN[C@@H](C)C(=O)O; Nle = CCCC[C@H](N)C(=O)O; PEG2′ = PEG2 spacer unit; Aib = CC(C)(N)C(=O)O; Sar = CNCC(=O)O

B1: rRAAGKLTCLASYCWLAATGIA (peptide)
peptide: [dR]RAAGKLTCLASYCWLAATGIA
modifications: not fully specified (C-terminus); printed as rRAAGKLTCLASYCWLAATGIA; cysteine pairing not given here
On to B1, for which the “EC50 [µM], FXa generation assay” value is more than 10 µM.

B2: RRAPGKLQCLASYCWLFKTGIA (peptide)
peptide: RRAPGKLQCLASYCWLFKTGIA
With B2, the “EC50 [µM], FXa generation assay” value is more than 10 µM.

B3: rRAAGKLTCLASACWLFATGIA (peptide)
peptide: [dR]RAAGKLTCLASACWLFATGIA
modifications: not fully specified (C-terminus); printed as rRAAGKLTCLASACWLFATGIA; cysteine pairing not given here
For the molecule B3, the “EC50 [µM], FXa generation assay” value is more than 1 µM.

B4: RRAPGKLQCLASYCWLFWTG-(1-Nal)-A (peptide)
peptide: RRAPGKLQCLASYCWLFWTG[1Nal]A
modifications: not fully specified; printed as RRAPGKLQCLASYCWLFWTG-(1-Nal)-A; cysteine pairing not given here
As for B4, the “EC50 [µM], FXa generation assay” value was less than 0.5 µM.

B5: RRAP-Sar-KLTCLASYCWLFWTGIA (peptide)
peptide: RRAP[Sar]KLTCLASYCWLFWTGIA
modifications: not fully specified; printed as RRAP-Sar-KLTCLASYCWLFWTGIA; cysteine pairing not given here
Take B5: the “EC50 [µM], FXa generation assay” value is less than 0.5 µM.

B6: RRAPGKLQCLASYCWLFWTKIA (peptide)
peptide: RRAPGKLQCLASYCWLFWTKIA
In the case of B6, the “EC50 [µM], FXa generation assay” value is more than 1 µM.

B7: RRAPGKLQCLASYCWLFWTG (peptide)
peptide: RRAPGKLQCLASYCWLFWTG
Turning to B7, the “EC50 [µM], FXa generation assay” value is more than 1 µM.

B8: RRAPGKLQCLASYCWLFWTG-Nle-A (peptide)
peptide: RRAPGKLQCLASYCWLFWTG[Nle]A
modifications: not fully specified; printed as RRAPGKLQCLASYCWLFWTG-Nle-A; cysteine pairing not given here
In the case of B8, the “EC50 [µM], FXa generation assay” value is less than 0.5 µM.

B9: RRAKGKLQCLASYCWLFWTGIA (peptide)
peptide: RRAKGKLQCLASYCWLFWTGIA
Turning to B9, the “EC50 [µM], FXa generation assay” value was more than 1 µM.

B10: RRAPKKLQCLASYCWLFWTGIA (peptide)
peptide: RRAPKKLQCLASYCWLFWTGIA
Turning to B10, the “EC50 [µM], FXa generation assay” value was more than 1 µM.

B11: compound 20 (peptide)
peptide: RRAPK([PEG2(3)-Biotin])KLTCLASYCWLFWTGIA-NH2
modifications: cysteine pairing not given here
With B11, the “EC50 [µM], FXa generation assay with hFIXa” value (from here on “EC50 [µM] … with hFIXa”) is less than 0.5 µM.

B12: RRAPGKLQCLASYCWLFWTG-Tle-A (peptide)
peptide: RRAPGKLQCLASYCWLFWTG[Tle]A
modifications: not fully specified; printed as RRAPGKLQCLASYCWLFWTG-Tle-A; cysteine pairing not given here
Consider B12, for which the “EC50 [µM], FXa generation assay” value is less than 0.5 µM.

B13: APGKLQCLASYCWLFWTGIA (peptide)
peptide: APGKLQCLASYCWLFWTGIA
Regarding B13, the “EC50 [µM], FXa generation assay” value was less than 0.5 µM.

B14: KRAPGKLQCLASYCWLFWTGIA (peptide)
peptide: KRAPGKLQCLASYCWLFWTGIA
On to B14, for which the “EC50 [µM], FXa generation assay” value was less than 0.5 µM.

B15: rRAAGKATCLASACW LAATGIA (peptide)
peptide: [dR]RAAGKATCLASACWLAATGIA
modifications: not fully specified (C-terminus); printed as rRAAGKATCLASACW LAATGIA; cysteine pairing not given here
As to B15, the “EC50 [µM], FXa generation assay” value was more than 10 µM.

B16: RKAPGKLQCLASYCWLFWTGIA (peptide)
peptide: RKAPGKLQCLASYCWLFWTGIA
In the case of B16, the “EC50 [µM], FXa generation assay” value was more than 1 µM.

B17: rRAPGKSTCLASYCWLFWTGIA (peptide)
peptide: [dR]RAPGKSTCLASYCWLFWTGIA
modifications: not fully specified (C-terminus); printed as rRAPGKSTCLASYCWLFWTGIA; cysteine pairing not given here
As to B17, the “EC50 [µM], FXa generation assay” value was less than 0.5 µM.

B18: RRAPGKLQCLASYCWLFWTGLA (peptide)
peptide: RRAPGKLQCLASYCWLFWTGLA
As to B18, the “EC50 [µM], FXa generation assay” value was less than 0.5 µM.

B19: RRAPGKLQCLASYCWLFWTGIK (peptide)
peptide: RRAPGKLQCLASYCWLFWTGIK
On to B19, for which the “EC50 [µM], FXa generation assay” value is more than 1 µM.

B20: rRAPGKLTCLASYCWLSWTGIA (peptide)
peptide: [dR]RAPGKLTCLASYCWLSWTGIA
modifications: not fully specified; printed as rRAPGKLTCLASYCWLSWTGIA; cysteine pairing not given here
For the molecule B20, the “EC50 [µM], FXa generation assay” value is more than 5 µM.

B21: RRAPGKLQCLASYCWLFWKGIA (peptide)
peptide: RRAPGKLQCLASYCWLFWKGIA
For the molecule B21, the “EC50 [µM], FXa generation assay” value was more than 5 µM.

B22: RRAPGKLQCLASYCWLFWTGKA (peptide)
peptide: RRAPGKLQCLASYCWLFWTGKA
Take B22: the “EC50 [µM], FXa generation assay” value was more than 5 µM.

B23: RRAPGKL-MeThr-CLASYCWLFWTGIA (peptide)
peptide: RRAPGKL[NMeT]CLASYCWLFWTGIA
modifications: cysteine pairing not given here
Regarding B23, the “EC50 [µM], FXa generation assay” value is more than 1 µM.

B24: RRAPGK-MeLeu-TCLASYCWLFWTGIA (peptide)
peptide: RRAPGK[NMeL]TCLASYCWLFWTGIA
modifications: not fully specified (bridges); printed as RRAPGK-MeLeu-TCLASYCWLFWTGIA; cysteine pairing not given here
As to B24, the “EC50 [µM], FXa generation assay” value was more than 1 µM.

B25: rRAAGKLTCLASYCWLFATGIA (peptide)
peptide: [dR]RAAGKLTCLASYCWLFATGIA
modifications: not fully specified (C-terminus); printed as rRAAGKLTCLASYCWLFATGIA; cysteine pairing not given here
As to B25, the “EC50 [µM], FXa generation assay” value is less than 0.5 µM.

B26: RAPGKLQCLASYCWLFWTGIA (peptide)
peptide: RAPGKLQCLASYCWLFWTGIA
Turning to B26, the “EC50 [µM], FXa generation assay” value is less than 0.5 µM.

B27: RRKPGKLQCLASYCWLFWTGIA (peptide)
peptide: RRKPGKLQCLASYCWLFWTGIA
Take B27: the “EC50 [µM], FXa generation assay” value is more than 1 µM.

B28: ARAPGKLQCLASYCWLFWTGIA (peptide)
peptide: ARAPGKLQCLASYCWLFWTGIA
For the molecule B28, the “EC50 [µM], FXa generation assay” value was less than 0.5 µM.

B29: compound 18 (peptide)
peptide: RRAPGKLTCLAK([PEG2′-Biotin])YCWLFWTGIA-NH2
modifications: cysteine pairing not given here
On to B29, for which the “EC50 [µM] … with hFIXa” value is less than 0.5 µM.

B30: R-MeArg-APGKLTCLASYCWLFWTGIA (peptide)
peptide: R[NMeR]APGKLTCLASYCWLFWTGIA
modifications: disulfide 9-14 (inferred); not fully specified (C-terminus); printed as R-MeArg-APGKLTCLASYCWLFWTGIA
For B30, the “EC50 [µM], FXa generation assay” value was less than 0.5 µM.

B31: GKLQCLASYCWLFWTGIA (peptide)
peptide: GKLQCLASYCWLFWTGIA
For B31, the “EC50 [µM], FXa generation assay” value was less than 0.5 µM.

B32: RRAPGKLQCLASYCWLF (peptide)
peptide: RRAPGKLQCLASYCWLF
Regarding B32, the “EC50 [µM], FXa generation assay” value was more than 5 µM.

B33: compound 4 (peptide)
peptide: RRAPGKLTCLASYCWLFWTGIA-NH2
modifications: cysteine pairing not given here
As to B33, the “EC50 [µM] … with hFIXa” value is less than 0.5 µM.

B34: PGKLQCLASYCWLFWTGIA (peptide)
peptide: PGKLQCLASYCWLFWTGIA
Take B34: the “EC50 [µM], FXa generation assay” value was less than 0.5 µM.

B35: rRAPGKLTCLASYCWLFSTGIA (peptide)
peptide: [dR]RAPGKLTCLASYCWLFSTGIA
modifications: not fully specified (C-terminus); printed as rRAPGKLTCLASYCWLFSTGIA; cysteine pairing not given here
Take B35: the “EC50 [µM], FXa generation assay” value is less than 0.5 µM.

B36: rRASGKLTCLASYCWLFWTGIA (peptide)
peptide: [dR]RASGKLTCLASYCWLFWTGIA
modifications: not fully specified (C-terminus); printed as rRASGKLTCLASYCWLFWTGIA; cysteine pairing not given here
As for B36, the “EC50 [µM], FXa generation assay” value is less than 0.5 µM.

B37: RRAPGKLQCLASYCWLFWTGFA (peptide)
peptide: RRAPGKLQCLASYCWLFWTGFA
Consider B37, for which the “EC50 [µM], FXa generation assay” value was less than 0.5 µM.

B38: RRAPGKLQCLASYCWLFWT-Aib-IA (peptide)
peptide: RRAPGKLQCLASYCWLFWT[Aib]IA
modifications: not fully specified; printed as RRAPGKLQCLASYCWLFWT-Aib-IA; cysteine pairing not given here
In the case of B38, the “EC50 [µM], FXa generation assay” value was more than 1 µM.

B39: RR-MeAla-PGKLTCLASYCWLFWTGIA (peptide)
peptide: RR[NMeA]PGKLTCLASYCWLFWTGIA
modifications: disulfide 9-14 (inferred); not fully specified (C-terminus); printed as RR-MeAla-PGKLTCLASYCWLFWTGIA
For B39, the “EC50 [µM], FXa generation assay” value is less than 0.5 µM.

B40: RRAPGKLQCLASYCWLFW (peptide)
peptide: RRAPGKLQCLASYCWLFW
As for B40, the “EC50 [µM], FXa generation assay” value is more than 1 µM.

B41: compound 6 (peptide)
peptide: R[dR]APGKLTCLASYCWLFWTGIA-NH2
modifications: cysteine pairing not given here
For B41, the “EC50 [µM] … with hFIXa” value is less than 0.5 µM.

B42: MeArg-RAPGKLTCLASYCWLFWTGIA (peptide)
peptide: [NMeR]RAPGKLTCLASYCWLFWTGIA
modifications: cysteine pairing not given here
In the case of B42, the “EC50 [µM], FXa generation assay” value was more than 1 µM.

B43: RRAPGKLQCLASYCWLFWT (peptide)
peptide: RRAPGKLQCLASYCWLFWT
For B43, the “EC50 [µM], FXa generation assay” value was more than 1 µM.
